Experiment [1] concerns the target FtsZ-YFP-mts (E. coli). In words: AUC; sedimentation velocity, 7 μM protein, working buffer, 4 mM GTP and 5 mM Mg2+; monomers to higher-order species.
In experiment [2] the target is FtsZ-YFP-mts (E. coli). In words: single-molecule TIRF residence time; subunits labelled with GFP-Booster Atto647N in filaments on the bilayer, about 0.2 μM protein, 4 mM GTP, 1 mM free Mg2+ (dynamic rings); double exponential fit with photobleaching term.
For experiment [3], the target named is FtsZ-YFP-mts (E. coli). In words: single-molecule TIRF residence time; subunits labelled with GFP-Booster Atto647N in filaments on the bilayer, about 0.2 μM protein, with GTP, 5 mM free Mg2+ (high-density mesh).

For the substance FtsZ-YFP-mts, in the experiment with FtsZ-YFP-mts (E. coli) [1], the percent of protein in higher-order species amounted to 70%. For the same substance, the mean residence time of single subunits within the filaments on the membrane with FtsZ-YFP-mts (E. coli) [2] came to 11.5 s; in the experiment with FtsZ-YFP-mts (E. coli) [3] it was 15.1 s.

The values are drawn from article PMC5979038.
